According to article PMC5668257:

Target: EB1 (dog (endogenous in MDCK))
Assay: FRET or BRET; immuno-FRET by acceptor photobleaching at the centrosome area of fixed mitotic MDCK cells; primary antibodies with secondary antibodies labelled with Alexa 555 (donor) and Cy5 or Alexa 633 (acceptor), 1 donor : 2 acceptor

An FRET efficiency (donor AKAP350, acceptor EB1) of 11% and an FRET efficiency (donor EB1, acceptor AKAP350) of 5% were found for AKAP350 (natural protein) in this work.
